Columns and labels:
human 4Ig-B7-H3 = target: T1, human 4Ig-B7-H3 (human, UniProt Q5ZPR3 29-534); test: flow cytometry on Raji clones expressing 4Ig-hB7-H3
T1 construct: whole, on cells; also called 4Ig-hB7-H3; Raji-4IgB7-H3
T1 sequence (looked up): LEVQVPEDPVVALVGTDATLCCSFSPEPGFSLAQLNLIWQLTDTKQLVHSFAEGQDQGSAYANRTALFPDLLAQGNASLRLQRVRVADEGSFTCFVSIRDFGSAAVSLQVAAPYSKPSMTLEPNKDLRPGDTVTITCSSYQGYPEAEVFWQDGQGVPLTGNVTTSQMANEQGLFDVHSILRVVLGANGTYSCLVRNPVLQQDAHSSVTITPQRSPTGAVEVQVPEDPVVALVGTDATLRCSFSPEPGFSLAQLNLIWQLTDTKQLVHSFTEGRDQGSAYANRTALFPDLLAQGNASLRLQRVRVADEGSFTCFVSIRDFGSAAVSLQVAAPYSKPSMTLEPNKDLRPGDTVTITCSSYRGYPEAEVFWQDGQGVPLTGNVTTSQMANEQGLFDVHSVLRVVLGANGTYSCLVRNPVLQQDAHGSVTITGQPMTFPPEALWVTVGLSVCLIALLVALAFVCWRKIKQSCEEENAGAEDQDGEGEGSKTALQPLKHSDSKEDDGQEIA

murine B7-H3 = target: T2, murine B7-H3 (mouse, UniProt Q8VE98 29-316); test: flow cytometry on Raji clones expressing mB7-H3
T2 construct: whole, on cells; also called mB7-H3; mouse B7-H3
T2 sequence (looked up): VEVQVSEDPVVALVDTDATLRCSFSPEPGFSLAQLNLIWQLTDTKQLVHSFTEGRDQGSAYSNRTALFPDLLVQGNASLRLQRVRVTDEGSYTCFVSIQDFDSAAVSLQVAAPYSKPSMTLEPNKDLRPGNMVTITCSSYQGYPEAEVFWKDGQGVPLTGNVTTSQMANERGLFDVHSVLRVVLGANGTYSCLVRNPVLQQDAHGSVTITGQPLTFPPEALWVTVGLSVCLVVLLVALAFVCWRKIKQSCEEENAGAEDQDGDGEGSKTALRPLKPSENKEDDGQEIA

binding result (human 4Ig-B7-H3): binds
binding result (murine B7-H3): binds
B1: anti-B7-H3 mAb 376.96 (antibody, V domains shown)
VH: EVQLVESGGGLVKPGGSLKLSCEASRFTFSSYAMSWVRQTPEKRLEWVAAISGGGRYTYYPDSMKGRFTISRDNAKNFLYLQMSSLRSEDTAMYYCARHYDGYLDYWGQGTTLTVSS
VL: DIVMTQSHKFMSTSIGARVSITCKASQDVRTAVAWYQQKPGQSPKLLIYSASYRYTGVPDRFTGSGSGTDFTFTISSVQAEDLAVYYCQQHYGTPPWTFGGGTKLEIK
notes: The residue ranges are my derivation
